{"source": "patent US20140227287A1", "about": "(Astellas, published 2014)", "key": {"[1]": {"target": "T1, mouse βNGF (R&D Systems, Inc.) (mouse, UniProt P01139 122-241)", "assay": "cell-based or functional assay"}, "[2]": {"target": "T2, human βNGF (R&D Systems, Inc.) (human, UniProt P01138 122-241)", "T2 construct": "The background says that NGF forms a dimer; also called human NGF; rhNGF", "assay": "NGF-trkA binding inhibition ELISA and cell assays (Examples 3, 6, 7)", "procedure": "(§1) Inhibitory activity was measured by the following method. The human trkA (R&D Systems, Inc.) was added to a white Maxisorp 384 plate (Nunc) at 60 ng/well and immobilized by being incubated overnight at 4° C. The next day, the plate was washed once with the TBST wash solution, a blocking agent (TBST containing 20% Blocking One (Nacalai Tesque, Inc.)) was then added thereto, and the plate was left to stand at room temperature for an hour. Subsequently, a mixture obtained by mixing the biotin-labeled human βNGF (0.2 μg/ml) prepared as above with the antibody prepared in Example 2 was added to the trkA-immobilized plate having undergone blocking. […] After an hour of incubation at room temperature, the plate was washed three times with the TBST wash solution and then supplemented with APU4 (BioFx) which is a reagent detecting chemiluminescence, and the amount of chemiluminescence was measured by an EnVision counter (PerkinElmer Co., Ltd.).\n(§2) The inhibitory activity was measured by the following method. […] By operating the FLIPR, a mixed solution of the antibody obtained in Example 2 and βNGF was added to the plate at 50 μl/well (final NGF concentration of 100 ng/ml), and the change in intracellular Ca²⁺ concentration was measured."}, "[3]": {"target": "T1, mouse βNGF (R&D Systems, Inc.)", "assay": "method of Example 3 with biotin-labeled mouse βNGF (Example 4)"}, "[4]": {"target": "T2, human βNGF (R&D Systems, Inc.)", "assay": "cell-based or functional assay"}, "[5]": {"target": "T2, human βNGF (R&D Systems, Inc.)", "assay": "Fab fragments evaluated by the tests of Examples 3, 6 and 7", "procedure": "as §1, §2"}, "[6]": {"target": "T2, human βNGF (R&D Systems, Inc.)", "assay": "isothermal titration calorimetry, human βNGF titrated into antibody in PBS, single site binding model"}, "[7]": {"target": "T2, human βNGF (R&D Systems, Inc.)", "assay": "competition ELISA: inhibition of biotin-labeled human βNGF binding to immobilized human trkA (Example 3)"}}, "data": [{"binder": "PEGylated 1-15(N52D)-Fab′ (Fab, V domains shown, 40 kDa PEG (maleimide, SUNBRIGHT GL2-400MA) on Cys of the carboxyl terminal (C226 based on EU index; Cys at position 230 of SEQ ID NO:10)) VH: QVQLQQWGAGLLKPSETLSLTCAVYGGSFSGYYWSWVRQPPGKGLEWIGEIDHSGSTNNNPSLKSRVTISVGTSKNQFSLKLSSVTAADTAVYYCSRDGGPESGMGAFDIWGQGTMVTVSS VL: not shown", "values": [{"measurement": "IC50, inhibition of NGF-induced intracellular Ca2+ increase (method of Example 6)", "setting": "[1]", "value": 0.069, "unit": "µg/mL"}, {"measurement": "neutralizing activity relative to tanezumab (method of Example 6)", "setting": "[1]", "value": "~3.3", "unit": "times"}]}, {"binder": "antibody 1-15 (chimeric antibody) (antibody, V domains shown, Heavy chain variable region has an N-glycosylation motif at N52 (Kabat)) VH: QVQLQQWGAGLLKPSETLSLTCAVYGGSFSGYYWSWVRQPPGKGLEWIGEINHSGSTNNNPSLKSRVTISVGTSKNQFSLKLSSVTAADTAVYYCSRDGGPESGMGAFDIWGQGTMVTVSS VL: not shown", "values": [{"measurement": "binding result", "setting": "[2]", "value": "binds"}, {"measurement": "binding result", "setting": "[3]", "value": "binds"}]}, {"binder": "1-15(N52D-A)-Fab′-5kPEG (Fab, V domains shown, 5 kDa PEG conjugated by a procedure similar to Example 13 (hinge Cys)) VH: QVQLQQWGAGLLKPSETLSLTCAVYGGSFSGYYWSWVRQPPGKGLEWIGEIDHSGSTNNNPSLKSRVTISVGTSKNQFSLKLSSVTAADTAVYYCSRDGGPESGMGAFDIWGQGTMVTVSS VL: not shown", "values": [{"measurement": "IC50, inhibition of NGF-induced intracellular Ca2+ increase (method of Example 6, final NGF concentration 50 ng/ml)", "setting": "[4]", "value": 0.03, "unit": "µg/mL"}]}, {"binder": "Fab fragment of antibody 1-15 (papain digest) (Fab, V domains shown, also called monovalent antibody fragment of 1-15) VH: QVQLQQWGAGLLKPSETLSLTCAVYGGSFSGYYWSWVRQPPGKGLEWIGEINHSGSTNNNPSLKSRVTISVGTSKNQFSLKLSSVTAADTAVYYCSRDGGPESGMGAFDIWGQGTMVTVSS VL: not shown", "values": [{"measurement": "binding result", "setting": "[5]", "value": "binds"}]}, {"binder": "1-15(N52D-A)-Fab′-10kPEG (Fab, V domains shown, 10 kDa PEG conjugated by a procedure similar to Example 13 (hinge Cys)) VH: QVQLQQWGAGLLKPSETLSLTCAVYGGSFSGYYWSWVRQPPGKGLEWIGEIDHSGSTNNNPSLKSRVTISVGTSKNQFSLKLSSVTAADTAVYYCSRDGGPESGMGAFDIWGQGTMVTVSS VL: not shown", "values": [{"measurement": "IC50, inhibition of NGF-induced intracellular Ca2+ increase (method of Example 6, final NGF concentration 50 ng/ml)", "setting": "[4]", "value": 0.028, "unit": "µg/mL"}]}, {"binder": "tanezumab (antibody, V domains shown) VH: QVQLQESGPGLVKPSETLSLTCTVSGFSLIGYDLNWIRQPPGKGLEWIGIIWGDGTTDYNSAVKSRVTISKDTSKNQFSLKLSSVTAADTAVYYCARGGYWYATSYYFDYWGQGTLVTVSS VL: DIQMTQSPSSLSASVGDRVTITCRASQSISNNLNWYQQKPGKAPKLLIYYTSRFHSGVPSRFSGSGSGTDFTFTISSLQPEDIATYYCQQEHTLPYTFGQGTKLEIKR", "values": [{"measurement": "IC50, inhibition of NGF-induced intracellular Ca2+ increase (method of Example 6)", "setting": "[4]", "value": 0.17, "unit": "µg/mL"}, {"measurement": "IC50, inhibition of NGF-induced intracellular Ca2+ increase (method of Example 6)", "setting": "[1]", "value": 0.23, "unit": "µg/mL"}, {"measurement": "-TΔS", "setting": "[6]", "value": -5.73, "unit": "kcal/mol"}, {"measurement": "Kd", "setting": "[6]", "value": 20.4, "unit": "nM"}, {"measurement": "ΔG", "setting": "[6]", "value": -10.5, "unit": "kcal/mol"}, {"measurement": "ΔH", "setting": "[6]", "value": -4.76, "unit": "kcal/mol"}, {"measurement": "IC50", "setting": "[7]", "value": 0.41, "unit": "µg/mL"}]}]}
